Test results reported in paper PMC12527917, “Regulation of kinesin-2 motility by its β-hairpin motif” (Nature Structural & Molecular Biology, 2025).

B1: Kap3 (human) (natural protein, UniProt Q92845 1-792, looked up)
chain: MQGEDARYLKRKVKGGNIDVHPSEKALIVHYEVEATILGEMGDPMLGERKECQKIIRLKSLNANTDITSLARKVVEECKLIHPSKLNEVEQLLYYLQNRRDSLSGKEKKEKSSKPKDPPPFEGMEIDEVANINDMDEYIELLYEDIPDKVRGSALILQLARNPDNLEELLLNETALGALARVLREDWKQSVELATNIIYIFFCFSSFSQFHGLITHYKIGALCMNIIDHELKRHELWQEELSKKKKAVDEDPENQTLRKDYEKTFKKYQGLVVKQEQLLRVALYLLLNLAEDTRTELKMRNKNIVHMLVKALDRDNFELLILVVSFLKKLSIFMENKNDMVEMDIVEKLVKMIPCEHEDLLNITLRLLLNLSFDTGLRNKMVQVGLLPKLTALLGNDNYKQIAMCVLYHISMDDRFKSMFAYTDCIPQLMKMLFECSDERIDLELISFCINLAANKRNVQLICEGNGLKMLMKRALKFKDPLLMKMIRNISQHDGPTKNLFIDYVGDLAAQISNDEEEEFVIECLGTLANLTIPDLDWELVLKEYKLVPYLKDKLKPGAAEDDLVLEVVIMIGTVSMDDSCAALLAKSGIIPALIELLNAQQEDDEFVCQIIYVFYQMVFHQATRDVIIKETQAPAYLIDLMHDKNNEIRKVCDNTLDIIAEYDEEWAKKIQSEKFRWHNSQWLEMVESRQMDESEQYLYGDDRIEPYIHEGDILERPDLFYNSDGLIASEGAISPDFFNDYHLQNGDVVGQHSFPGSLGMDGFGQPVGILGRPATAYGFRPDEPYYYGYGS
notes: Kap3, human, synthesised gene; SNAPf labelled with SNAP-Cell TMR-Star in the TIRF colocalisation assay; No truncation is mentioned; probably the whole protein; source: Sf9 (baculovirus), purified (IgG Sepharose, TEV elution, SEC); not shown: ZZ, N-terminal, cleaved; SNAPf, N-terminal, kept
B2: Kif3B^ΔC156 (domain or fragment, human, UniProt O15066 1-591, looked up)
chain: MSKLKSSESVRVVVRCRPMNGKEKAASYDKVVDVDVKLGQVSVKNPKGTAHEMPKTFTFDAVYDWNAKQFELYDETFRPLVDSVLQGFNGTIFAYGQTGTGKTYTMEGIRGDPEKRGVIPNSFDHIFTHISRSQNQQYLVRASYLEIYQEEIRDLLSKDQTKRLELKERPDTGVYVKDLSSFVTKSVKEIEHVMNVGNQNRSVGATNMNEHSSRSHAIFVITIECSEVGLDGENHIRVGKLNLVDLAGSERQAKTGAQGERLKEATKINLSLSALGNVISALVDGKSTHIPYRDSKLTRLLQDSLGGNAKTVMVANVGPASYNVEETLTTLRYANRAKNIKNKPRVNEDPKDALLREFQEEIARLKAQLEKRSIGRRKRREKRREGGGSGGGGEEEEEEGEEGEEEGDDKDDYWREQQEKLEIEKRAIVEDHSLVAEEKMRLLKEKEKKMEDLRREKDAAEMLGAKIKAMESKLLVGGKNIVDHTNEQQKILEQKRQEIAEQKRREREIQQQMESRDEETLELKETYSSLQQEVDIKTKKLKKLFSKLQAVKAEIHDLQEEHIKERQELEQTQNELTRELKLKHLIIENFI
notes: Kif3B, human, 156 amino acids truncated from the C terminus (removes the Kif3B β-hairpin motif); also called Kif3B^Δ156; source: Sf9 (baculovirus), coexpressed with Kif3A^ΔC103, purified (IgG Sepharose, TEV elution, SEC); not shown: ZZ, N-terminal, cleaved
B3: Kif3B (human kinesin-2 motor subunit), full length (natural protein, UniProt O15066 1-747, looked up)
chain: MSKLKSSESVRVVVRCRPMNGKEKAASYDKVVDVDVKLGQVSVKNPKGTAHEMPKTFTFDAVYDWNAKQFELYDETFRPLVDSVLQGFNGTIFAYGQTGTGKTYTMEGIRGDPEKRGVIPNSFDHIFTHISRSQNQQYLVRASYLEIYQEEIRDLLSKDQTKRLELKERPDTGVYVKDLSSFVTKSVKEIEHVMNVGNQNRSVGATNMNEHSSRSHAIFVITIECSEVGLDGENHIRVGKLNLVDLAGSERQAKTGAQGERLKEATKINLSLSALGNVISALVDGKSTHIPYRDSKLTRLLQDSLGGNAKTVMVANVGPASYNVEETLTTLRYANRAKNIKNKPRVNEDPKDALLREFQEEIARLKAQLEKRSIGRRKRREKRREGGGSGGGGEEEEEEGEEGEEEGDDKDDYWREQQEKLEIEKRAIVEDHSLVAEEKMRLLKEKEKKMEDLRREKDAAEMLGAKIKAMESKLLVGGKNIVDHTNEQQKILEQKRQEIAEQKRREREIQQQMESRDEETLELKETYSSLQQEVDIKTKKLKKLFSKLQAVKAEIHDLQEEHIKERQELEQTQNELTRELKLKHLIIENFIPLEEKSKIMNRAFFDEEEDHWKLHPITRLENQQMMKRPVSAVGYKRPLSQHARMSMMIRPEARYRAENIVLLELDMPSRTTRDYEGPAIAPKVQAALDAALQDEDEIQVDASSFESTANKKSKARPKSGRKSGSSSSSSGTPASQLYPQSRGLVPK
notes: Kif3B, human, synthesised gene, full-length subunit; source: Sf9 (baculovirus), coexpressed with Kif3A, purified (IgG Sepharose, TEV elution, SEC); not shown: ZZ, N-terminal, cleaved

What was measured:
Settings in all cases: both partners purified
[1] = target: T1, Kif3A–Kif3B^ΔC90 heterodimer (ΔInt3) (human, UniProt Q9Y496 1-699; O15066 1-657); experiment: single-molecule TIRF colocalisation; Alexa-Fluor-647-labelled Kif3AB/C constructs on surface-attached microtubules (1 mM AMPPNP in Fig. 4c), TMR-labelled Kap3 at 1 nM, buffer B, 25 °C; fraction of Kif3A spots with Kap3 signal
T1 construct: Kif3A, human, synthesised gene, full-length subunit; Kif3B, human, 90 amino acids truncated from the C terminus; source: Sf9 (baculovirus), coexpressed, purified (IgG Sepharose, TEV elution, SEC); not shown: SNAPf, C-terminal, kept; ZZ, N-terminal, cleaved
T1 sequence (Q9Y496 whole entry, stated change not applied, the tested form may be a part, one chain of several): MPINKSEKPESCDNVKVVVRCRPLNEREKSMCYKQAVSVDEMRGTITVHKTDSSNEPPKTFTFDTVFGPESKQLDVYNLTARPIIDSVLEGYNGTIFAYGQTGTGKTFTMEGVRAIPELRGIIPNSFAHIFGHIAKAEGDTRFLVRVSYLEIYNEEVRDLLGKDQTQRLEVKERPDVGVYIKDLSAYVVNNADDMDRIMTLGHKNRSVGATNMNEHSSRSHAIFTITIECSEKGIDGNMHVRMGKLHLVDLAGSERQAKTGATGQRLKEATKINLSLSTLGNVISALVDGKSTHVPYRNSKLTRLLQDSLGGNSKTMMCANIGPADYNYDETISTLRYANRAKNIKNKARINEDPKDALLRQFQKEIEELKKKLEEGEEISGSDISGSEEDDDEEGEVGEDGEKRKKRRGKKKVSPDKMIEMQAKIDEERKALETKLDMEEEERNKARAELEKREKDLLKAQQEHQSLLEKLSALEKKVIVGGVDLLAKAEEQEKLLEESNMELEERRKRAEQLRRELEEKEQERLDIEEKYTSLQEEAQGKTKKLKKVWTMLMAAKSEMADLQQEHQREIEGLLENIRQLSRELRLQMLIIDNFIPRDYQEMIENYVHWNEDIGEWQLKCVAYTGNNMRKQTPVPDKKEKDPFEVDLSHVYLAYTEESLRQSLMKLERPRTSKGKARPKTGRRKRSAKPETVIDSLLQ

[2] = target: T2, Kif3A^ΔC89–Kif3B heterodimer (ΔInt1) (human, UniProt Q9Y496 1-610; O15066 1-747); experiment: as above
T2 construct: Kif3A, human, 89 amino acids truncated from the C terminus (within the β-hairpin motif); Kif3B, human, synthesised gene, full-length subunit; also called Kif3A^Δ89B; source: Sf9 (baculovirus), coexpressed, purified (IgG Sepharose, TEV elution, SEC); not shown: SNAPf, C-terminal, kept; ZZ, N-terminal, cleaved
T2 sequence (Q9Y496 1-610, stated change not applied, one chain of several): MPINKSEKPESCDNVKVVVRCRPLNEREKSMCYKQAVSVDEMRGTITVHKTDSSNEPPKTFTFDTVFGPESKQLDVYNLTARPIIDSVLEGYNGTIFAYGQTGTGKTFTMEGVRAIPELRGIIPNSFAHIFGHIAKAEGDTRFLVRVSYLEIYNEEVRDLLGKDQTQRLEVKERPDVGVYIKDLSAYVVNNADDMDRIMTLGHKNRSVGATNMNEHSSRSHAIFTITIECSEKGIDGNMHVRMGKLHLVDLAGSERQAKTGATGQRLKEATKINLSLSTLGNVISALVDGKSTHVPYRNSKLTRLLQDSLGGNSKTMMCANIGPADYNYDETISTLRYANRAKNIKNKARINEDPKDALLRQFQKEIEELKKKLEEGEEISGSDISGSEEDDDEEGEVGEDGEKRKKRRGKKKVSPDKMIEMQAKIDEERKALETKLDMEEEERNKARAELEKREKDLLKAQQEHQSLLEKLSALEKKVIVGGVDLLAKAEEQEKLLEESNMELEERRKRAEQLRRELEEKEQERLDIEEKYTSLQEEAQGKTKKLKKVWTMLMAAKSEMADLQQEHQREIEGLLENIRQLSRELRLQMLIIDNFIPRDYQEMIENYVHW

[3] = target: T3, Kif3A–Kif3B^ΔC114 heterodimer (ΔInt2+3) (human, UniProt Q9Y496 1-699; O15066 1-633); experiment: as above
T3 construct: Kif3A, human, synthesised gene, full-length subunit; Kif3B, human, 114 amino acids truncated from the C terminus; source: Sf9 (baculovirus), coexpressed, purified (IgG Sepharose, TEV elution, SEC); not shown: SNAPf, C-terminal, kept; ZZ, N-terminal, cleaved
T3 sequence (Q9Y496 whole entry, stated change not applied, the tested form may be a part, one chain of several): as the sequence (Q9Y496 whole entry, stated change not applied, the tested form may be a part, one chain of several) above

[4] = target: T4, Kif3AB heterodimer, full length (human, UniProt Q9Y496 1-699; O15066 1-747); experiment: as above
T4 construct: Kif3A, human, synthesised gene, full-length subunit; Kif3B, human, synthesised gene, full-length subunit; SNAPf on Kif3A labelled with Alexa Fluor 647 in the TIRF assays; A Kif3A construct without SNAPf was also cloned; also called Kif3A–Kif3B; Kif3AB^WT; source: Sf9 (baculovirus), coexpressed, purified (IgG Sepharose, TEV elution, SEC); not shown: SNAPf, C-terminal, kept; ZZ, N-terminal, cleaved
T4 sequence (Q9Y496 whole entry, one chain of several): as the sequence (Q9Y496 whole entry, stated change not applied, the tested form may be a part, one chain of several) above

Kif3A^ΔC103 = target: T5, Kif3A^ΔC103 (human, UniProt Q9Y496 1-596); experiment: SEC; motor subunits coexpressed in Sf9, purified through the ZZ tag of Kif3B/C on IgG Sepharose, TEV elution, Superose 6 Increase 3.2/300 in buffer A (50 mM Tris-HCl pH 7.5, 150 mM K-acetate, 2 mM Mg-acetate, 5% glycerol, 1 mM DTT, 0.2 mM Mg-ATP); SDS-PAGE of peak fraction
T5 construct: Kif3A, human, 103 amino acids truncated from the C terminus; also called Kif3A^Δ103; source: Sf9 (baculovirus), coexpressed with Kif3B constructs, purified (IgG Sepharose, TEV elution, SEC); not shown: SNAPf, C-terminal, kept
T5 sequence (Q9Y496 1-596, stated change not applied): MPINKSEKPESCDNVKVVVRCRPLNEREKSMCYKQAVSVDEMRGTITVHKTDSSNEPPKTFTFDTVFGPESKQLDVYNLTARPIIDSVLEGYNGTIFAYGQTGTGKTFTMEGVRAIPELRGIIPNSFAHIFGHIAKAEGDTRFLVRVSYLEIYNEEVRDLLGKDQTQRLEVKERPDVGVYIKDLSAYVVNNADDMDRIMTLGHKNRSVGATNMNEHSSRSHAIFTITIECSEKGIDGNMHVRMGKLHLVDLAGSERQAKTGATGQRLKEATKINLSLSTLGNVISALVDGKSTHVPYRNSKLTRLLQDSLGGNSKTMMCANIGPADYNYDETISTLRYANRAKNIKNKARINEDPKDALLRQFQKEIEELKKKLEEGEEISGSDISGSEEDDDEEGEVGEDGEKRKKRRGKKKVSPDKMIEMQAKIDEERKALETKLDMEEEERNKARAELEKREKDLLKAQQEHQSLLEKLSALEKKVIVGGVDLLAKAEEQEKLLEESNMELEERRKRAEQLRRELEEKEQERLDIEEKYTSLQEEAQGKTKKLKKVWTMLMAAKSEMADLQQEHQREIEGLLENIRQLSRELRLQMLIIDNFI

Kap3 (human) = target: B1; experiment: single-molecule TIRF colocalisation; Alexa-Fluor-647-labelled Kif3AB/C constructs on surface-attached microtubules (1 mM AMPPNP in Fig. 4c), TMR-labelled Kap3 at 1 nM, buffer B, 25 °C; fraction of Kif3A spots with Kap3 signal

B1 was tested, and the “percent of Kif3AB molecules with colocalised Kap3” value (shortened to “percent of Kif3AB molecules”) [1] was 62%, the “percent of Kif3AB molecules” value [2] was 26% and the “percent of Kif3AB molecules” value [3] was 50%. For the same binder, the “percent of Kif3AB molecules” value [4] was 82%.

B2: binds (Kif3A^ΔC103).

B3: binds (Kap3 (human)).
